Measured values published in publication PMC9729238 (Communications Biology, 2022).

Key:
[1] = target: Chimera of the α7-nAChR extracellular domain with acetylcholine-binding protein (α7-ECD) (human α7-nAChR / Lymnaea stagnalis AChBP chimera); test: cryo-EM structure
[2] = target: T1, Nicotinic acetylcholine receptor of α7 type (α7-nAChR) expressed in HEK293 cells (UniProt P36544 23-502); test: flow cytometry on cells; details: one partner purified
T1 construct: also called full-length α7 receptor; α7 receptor

Molecule | stoichiometry N [1] | IC50 [2] [µM]
Chimera of the α7-nAChR extracellular domain with acetylcholine-binding protein (α7-ECD) (domain or fragment) | 5 | 
Weak toxin from Naja kaouthia venom (WTX), recombinant analog (natural protein, disulfide (positions not given here); also: five disulfide bonds, pairing not given here) MLTCLNCPEMFCGKFQICRNGEKICFKKLHQRRPLSWRYIRGCADTCPVGKPYEMIECCSTDKCNR |  | 26 ± 4
